Consider four molecules from PMC13218723, “A novel RAB5 binding site in human VPS34-CII that is likely the primordial site in eukaryotic evolution” (eLife, 2026).

Experiment [1] addresses mCherry-tagged yeast VPS34-CII (ScVPS34-CII), wild type (S. cerevisiae, UniProt P22543 1-875; P22219 1-1454; Q02948 1-557; Q05919 1-439).
Target sequence in this assay (P22543 whole entry, chain 1 of 4): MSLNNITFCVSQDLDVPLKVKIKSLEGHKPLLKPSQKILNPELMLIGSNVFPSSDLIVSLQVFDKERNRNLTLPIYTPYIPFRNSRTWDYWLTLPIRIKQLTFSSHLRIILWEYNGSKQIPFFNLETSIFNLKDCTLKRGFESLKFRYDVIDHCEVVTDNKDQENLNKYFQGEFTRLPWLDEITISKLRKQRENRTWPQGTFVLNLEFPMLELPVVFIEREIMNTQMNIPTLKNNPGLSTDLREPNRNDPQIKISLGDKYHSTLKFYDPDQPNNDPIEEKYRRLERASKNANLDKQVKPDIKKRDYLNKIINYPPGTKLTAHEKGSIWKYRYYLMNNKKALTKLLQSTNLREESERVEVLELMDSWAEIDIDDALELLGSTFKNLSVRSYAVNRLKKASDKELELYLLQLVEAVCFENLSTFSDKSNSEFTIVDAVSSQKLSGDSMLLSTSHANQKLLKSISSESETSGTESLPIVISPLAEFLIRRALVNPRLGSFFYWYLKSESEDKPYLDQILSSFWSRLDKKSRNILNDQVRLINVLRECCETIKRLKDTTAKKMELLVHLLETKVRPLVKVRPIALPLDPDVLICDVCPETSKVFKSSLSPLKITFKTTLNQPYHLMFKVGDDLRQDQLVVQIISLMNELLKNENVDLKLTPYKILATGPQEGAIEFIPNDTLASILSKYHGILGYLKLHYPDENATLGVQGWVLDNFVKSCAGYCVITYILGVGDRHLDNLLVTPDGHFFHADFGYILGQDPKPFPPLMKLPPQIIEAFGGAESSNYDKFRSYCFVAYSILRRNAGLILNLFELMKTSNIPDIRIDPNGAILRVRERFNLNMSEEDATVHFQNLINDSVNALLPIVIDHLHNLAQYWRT
Target sequence in this assay (P22219 whole entry, chain 2 of 4): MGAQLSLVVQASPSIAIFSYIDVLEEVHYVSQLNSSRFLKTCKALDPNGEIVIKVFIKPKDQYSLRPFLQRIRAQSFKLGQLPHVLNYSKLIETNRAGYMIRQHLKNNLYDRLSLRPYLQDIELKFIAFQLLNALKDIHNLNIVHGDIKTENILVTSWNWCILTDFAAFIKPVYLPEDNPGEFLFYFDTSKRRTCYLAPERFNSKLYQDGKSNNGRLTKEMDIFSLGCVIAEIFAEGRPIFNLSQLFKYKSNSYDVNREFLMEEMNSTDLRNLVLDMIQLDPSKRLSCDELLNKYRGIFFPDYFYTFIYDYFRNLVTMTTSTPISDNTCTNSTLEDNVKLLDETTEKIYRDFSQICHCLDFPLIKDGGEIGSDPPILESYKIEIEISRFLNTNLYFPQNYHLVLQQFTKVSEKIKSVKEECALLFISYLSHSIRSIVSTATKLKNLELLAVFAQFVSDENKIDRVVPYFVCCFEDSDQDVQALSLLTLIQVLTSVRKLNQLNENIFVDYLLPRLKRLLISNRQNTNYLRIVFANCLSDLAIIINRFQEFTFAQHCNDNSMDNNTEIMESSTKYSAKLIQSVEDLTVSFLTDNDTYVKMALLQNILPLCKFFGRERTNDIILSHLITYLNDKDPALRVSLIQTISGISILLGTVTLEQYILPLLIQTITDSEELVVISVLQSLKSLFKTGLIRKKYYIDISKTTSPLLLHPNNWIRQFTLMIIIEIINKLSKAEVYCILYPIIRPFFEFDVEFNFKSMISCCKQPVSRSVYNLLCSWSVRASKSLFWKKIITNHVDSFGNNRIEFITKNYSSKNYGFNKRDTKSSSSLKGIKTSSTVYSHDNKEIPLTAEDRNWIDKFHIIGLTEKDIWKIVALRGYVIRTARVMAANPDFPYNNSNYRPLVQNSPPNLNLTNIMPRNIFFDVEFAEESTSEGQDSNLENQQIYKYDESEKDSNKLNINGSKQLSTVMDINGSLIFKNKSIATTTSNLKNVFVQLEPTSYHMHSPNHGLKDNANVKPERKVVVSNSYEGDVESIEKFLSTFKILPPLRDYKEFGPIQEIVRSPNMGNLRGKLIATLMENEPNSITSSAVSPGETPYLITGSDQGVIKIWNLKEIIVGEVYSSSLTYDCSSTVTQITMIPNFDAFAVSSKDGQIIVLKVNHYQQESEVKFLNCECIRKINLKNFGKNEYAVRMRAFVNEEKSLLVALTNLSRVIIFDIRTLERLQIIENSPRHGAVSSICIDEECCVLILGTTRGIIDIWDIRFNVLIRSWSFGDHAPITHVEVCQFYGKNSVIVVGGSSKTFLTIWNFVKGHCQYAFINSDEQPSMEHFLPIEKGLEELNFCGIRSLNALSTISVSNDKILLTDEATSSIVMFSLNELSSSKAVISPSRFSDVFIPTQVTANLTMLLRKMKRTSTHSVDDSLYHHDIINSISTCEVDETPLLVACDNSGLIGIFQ
Target sequence in this assay (Q02948 whole entry, chain 3 of 4): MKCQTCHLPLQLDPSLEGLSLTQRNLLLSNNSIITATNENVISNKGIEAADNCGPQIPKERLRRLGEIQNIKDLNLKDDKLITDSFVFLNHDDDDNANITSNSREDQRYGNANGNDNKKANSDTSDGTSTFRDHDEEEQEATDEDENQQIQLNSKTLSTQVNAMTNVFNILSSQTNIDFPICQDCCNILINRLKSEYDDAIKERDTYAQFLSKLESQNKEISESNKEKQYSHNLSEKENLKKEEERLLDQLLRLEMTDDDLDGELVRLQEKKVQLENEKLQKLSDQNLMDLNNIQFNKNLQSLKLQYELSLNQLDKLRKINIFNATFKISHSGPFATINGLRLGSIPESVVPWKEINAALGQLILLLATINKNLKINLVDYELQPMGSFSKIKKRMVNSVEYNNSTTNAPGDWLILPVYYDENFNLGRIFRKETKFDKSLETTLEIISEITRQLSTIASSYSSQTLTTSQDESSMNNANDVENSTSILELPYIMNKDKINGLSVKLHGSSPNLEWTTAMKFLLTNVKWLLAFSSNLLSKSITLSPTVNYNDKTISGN
Target sequence in this assay (Q05919 whole entry, chain 4 of 4): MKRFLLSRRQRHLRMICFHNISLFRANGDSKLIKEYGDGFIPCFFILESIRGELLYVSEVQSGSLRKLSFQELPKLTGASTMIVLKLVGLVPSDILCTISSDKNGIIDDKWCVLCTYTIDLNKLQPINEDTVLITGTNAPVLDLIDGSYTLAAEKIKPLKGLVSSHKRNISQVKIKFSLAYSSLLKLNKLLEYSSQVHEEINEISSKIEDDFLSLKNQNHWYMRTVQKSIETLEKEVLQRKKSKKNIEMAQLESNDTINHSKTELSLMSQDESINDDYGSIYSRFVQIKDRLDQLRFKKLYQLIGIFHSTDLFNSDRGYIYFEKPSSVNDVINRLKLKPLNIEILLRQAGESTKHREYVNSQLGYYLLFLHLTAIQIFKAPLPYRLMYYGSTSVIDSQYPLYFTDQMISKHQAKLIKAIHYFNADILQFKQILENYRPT
The target in experiment [2] is T1, mCherry-tagged yeast VPS34-CII (ScVPS34-CII), wild type (S. cerevisiae, UniProt P22543 1-875; P22219 1-1454; Q02948 1-557; Q05919 1-439).
T1 construct: S. cerevisiae Vps34; S. cerevisiae Vps15; S. cerevisiae Vps30, named as a common subunit of the yeast complexes; S. cerevisiae Vps38, named as the unique subunit of yeast complex II; also called WT ScVPS34-CII; yeast complex II; source: S. cerevisiae YOY193, galactose-induced; purified (IgG beads, TEV cleavage, Superdex 200); copies: + + +
Nature of the experiment: confocal microscopy bead-based binding assay; RFP-trap beads coated with mCherry-tagged yeast VPS34-CII; Vps21 Q66L-EGFP added at increasing concentrations. The following applies: both partners purified.
T1 sequence (P22543 whole entry, chain 1 of 4): as the sequence (P22543 whole entry, chain 1 of 4) above
T1 sequence (P22219 whole entry, chain 2 of 4): as the sequence (P22219 whole entry, chain 2 of 4) above
T1 sequence (Q02948 whole entry, chain 3 of 4): as the sequence (Q02948 whole entry, chain 3 of 4) above
T1 sequence (Q05919 whole entry, chain 4 of 4): as the sequence (Q05919 whole entry, chain 4 of 4) above

For experiment [3], the target named is T2, mCherry-tagged human VPS34-CII with VPS34 199-REIE-202>199-ERIR-202 (human, UniProt Q8NEB9 1-887; Q99570 1-1358; Q14457 1-450; Q9P2Y5 1-699, R199E | E200R | E202R).
T2 construct: human VPS34, full length, untagged, R199E E200R E202R; human VPS15, full length, with C-terminal 3xTEV-ZZ removed by TEV; human BECLIN1, full length; human UVRAG, full length, untagged; also called VPS34-CII REIE >ERIR; reverse charge mutant; source: Expi293 cells, transfected; purified (IgG beads, TEV cleavage, S200 gel filtration); not shown: ZZ (protein A), C-terminal, cleaved; mCherry, …
Nature of the experiment: confocal microscopy bead-based binding assay; RFP-trap agarose beads coated with 2 µM mCherry-tagged VPS34 complex (or mCherry alone); AF488-labelled RAB protein added at varying concentrations; 20 mM HEPES pH 8.0, 100 mM NaCl, 0.5 mM TCEP; 30 min on ice; AF488 normalised by mCherry intensity; fit 'One site - specific binding'. The following applies: both partners purified.

Experiment [4] concerns the target T3, mCherry-tagged human VPS34 complex II (VPS34-CII), wild type (human, UniProt Q8NEB9 1-887; Q99570 1-1358; Q14457 1-450; Q9P2Y5 1-699).
T3 construct: human VPS34 (class III PI3K), full length, untagged; human VPS15, full length, with C-terminal 3xTEV-ZZ removed by TEV; human BECLIN1, full length; human UVRAG, full length, untagged; Held on RFP-trap beads by the mCherry on BECLIN1; also called mCherry-VPS34-CII; WT VPS34-CII; source: Expi293 cells, transfected; purified (IgG beads, TEV cleavage, S200 gel filtration); not shown: ZZ (protein A), …
Described as above. The following applies: both partners purified.

The target in experiment [5] is T4, mCherry-tagged human VPS34-CII with VPS34 199-REIE-202>199-AAAA-202 (human, UniProt Q8NEB9 1-887; Q99570 1-1358; Q14457 1-450; Q9P2Y5 1-699, 199-REIE-202>199-AAAA-202).
T4 construct: human VPS34, full length, untagged, REIE to AAAA in C2 HH helix 2; human VPS15, full length, with C-terminal 3xTEV-ZZ removed by TEV; human BECLIN1, full length; human UVRAG, full length, untagged; also called VPS34-CII REIE >AAAA; source: Expi293 cells, transfected; purified (IgG beads, TEV cleavage, S200 gel filtration); not shown: ZZ (protein A), C-terminal, cleaved; mCherry, N-terminal, kept; …
The description is as above. The following applies: both partners purified.

The target of experiment [6] is T5, mCherry-tagged human VPS34-CII with VPS15 579-SHMIT-583>579-DDMIE-583 (human, UniProt Q8NEB9 1-887; Q99570 1-1358; Q14457 1-450; Q9P2Y5 1-699, S579D | H580D | T583E).
T5 construct: human VPS34, wild type; human VPS15, full length, S579D H580D T583E, with C-terminal 3xTEV-ZZ removed by TEV; human BECLIN1, full length; human UVRAG, full length, untagged; also called VPS34-CII VPS15 mutant; VPS15 mut; source: Expi293 cells, transfected; purified (IgG beads, TEV cleavage, S200 gel filtration); not shown: ZZ (protein A), C-terminal, cleaved; mCherry, N-terminal, kept; copies: + …
Described as above. The following applies: both partners purified.

The target in experiment [7] is mCherry-tagged human VPS34-CII with VPS34 199-REIE-202>199-AAAA-202 (human, UniProt Q8NEB9 1-887; Q99570 1-1358; Q14457 1-450; Q9P2Y5 1-699, 199-REIE-202>199-AAAA-202).
The target of experiment [8] is T6, mCherry-tagged human VPS34 complex II with VPS34 199-REIE-202>AAAA (human, UniProt Q8NEB9 1-887; Q99570 1-1358; Q14457 1-450; Q9P2Y5 1-699, 199-REIE-202>199-AAAA-202).
T6 construct: VPS34 (PIK3C3), human, full length, untagged, 199-REIE-202 changed to AAAA; VPS15, human, full length; BECLIN1, human, full length; UVRAG, human, full length, untagged; also called VPS34-CII REIE >AAAA; CII-AAAA; source: Expi293 cells, transfected, purified (IgG beads, TEV cleavage, gel filtration); not shown: ZZ, C-terminal, cleaved; mCherry, N-terminal, kept; copies: + + +
In words: confocal microscopy bead-based binding assay; mCherry-tagged VPS34 complex (2 µM) held on RFP-trap agarose beads, AF488-labelled RAB5A added at varying concentrations; 20 mM HEPES pH 8.0, 100 mM NaCl, 0.5 mM TCEP; 30 min on ice; AF488 intensity normalised by mCherry intensity; GraphPad Prism fit 'One site - specific binding'; fit of the representative experiment. The following applies: both partners purified.

Experiment [9] has as its target T7, mCherry-tagged human VPS34 complex II with VPS34 199-REIE-202>ERIR (human, UniProt Q8NEB9 1-887; Q99570 1-1358; Q14457 1-450; Q9P2Y5 1-699, R199E | E200R | E202R).
T7 construct: VPS34 (PIK3C3), human, full length, untagged, R199E E200R E202R (199-REIE-202 to ERIR); VPS15, human, full length; BECLIN1, human, full length; UVRAG, human, full length, untagged; also called VPS34-CII REIE >ERIR; CII-ERIR; source: Expi293 cells, transfected, purified (IgG beads, TEV cleavage, gel filtration); not shown: ZZ, C-terminal, cleaved; mCherry, N-terminal, kept; copies: + + +
The experiment is described as above. The following applies: both partners purified.

Experiment [10] deals with T8, mCherry-tagged human VPS34 complex II with VPS15 579-SHMIT-583>DDMIE (human, UniProt Q8NEB9 1-887; Q99570 1-1358; Q14457 1-450; Q9P2Y5 1-699, S579D | H580D | T583E).
T8 construct: VPS34 (PIK3C3), human, wild type; BECLIN1, human, full length; UVRAG, human, full length, untagged; also called VPS34-CII VPS15 mutant; CII-DDMIE; source: Expi293 cells, transfected, purified (IgG beads, TEV cleavage, gel filtration); not shown: ZZ, C-terminal, cleaved; mCherry, N-terminal, kept; copies: + + +
Described as above. The conditions noted are these: both partners purified.

The target of experiment [11] is T9, mCherry-tagged human VPS34 complex II, wild type (VPS34, VPS15, mCherry-BECLIN1, UVRAG) (human, UniProt Q8NEB9 1-887; Q99570 1-1358; Q14457 1-450; Q9P2Y5 1-699).
T9 construct: VPS34 (PIK3C3), human, full length, untagged; VPS15, human, full length; BECLIN1, human, full length; UVRAG, human, full length, untagged; Held on RFP-trap beads by the mCherry on BECLIN1; also called VPS34-CII; WT VPS34-CII; source: Expi293 cells, transfected, purified (IgG beads, TEV cleavage, gel filtration); not shown: ZZ, C-terminal, cleaved; mCherry, N-terminal, kept; copies: + + +
Described as above. The following applies: both partners purified.

Experiment [12] deals with human VPS34-CII with VPS34 199-REIE-202>199-ERIR-202, untagged (human, UniProt Q8NEB9 1-887; Q99570 1-1358; Q14457 1-450; Q9P2Y5 1-699, R199E | E200R | E202R). Nature of the experiment: cell-based or functional assay.
Experiment [13] deals with T5, mCherry-tagged human VPS34-CII with …. Nature of the experiment: cell-based or functional assay.

Where “and” joins values, the source holds several entries; their conditions need not be identical. Equal values may be shown once.

B1: S. cerevisiae Vps21 Q66L, 1-207, EGFP fusion (natural protein, UniProt P36017 1-207, looked up)
chain: MNTSVTSIKLVLLGEAAVGKSSIVLRFVSNDFAENKEPTIGAAFLTQRVTINEHTVKFEIWDTAGLERFASLAPMYYRNAQAALVVYDVTKPQSFIKARHWVKELHEQASKDIIIALVGNKIDMLQEGGERKVAREEGEKLAEEKGLLFFETSAKTGENVNDVFLGIGEKIPLKTAEEQNSASNERESNNQRVDLNAANDGTSANSA
notes: S. cerevisiae Vps21 residues 1-207, Q66L (GTP-locked); Backbone pOPTH; also called Vps21 Q66L-EGFP; yeast RAB5 orthologue; source: E. coli OverExpress C41(DE3), purified (Ni-NTA, Q column, S75 gel filtration), GTP-loaded; not shown: EGFP, C-terminal, kept
As for B1, the Kd (in general, the equilibrium constant for the complex coming apart) in experiment [1] amounted to 6 µM. In addition, the binding result in experiment [2] is “binds”.

B2: AF488-labelled human RAB5A Q79L C19S C63S, 1-212 (natural protein, UniProt P20339 1-212, looked up)
chain: MASRGATRPNGPNTGNKISQFKLVLLGESAVGKSSLVLRFVKGQFHEFQESTIGAAFLTQTVSLDDTTVKFEIWDTAGLERYHSLAPMYYRGAQAAIVVYDITNEESFARAKNWVKELQRQASPNIVIALSGNKADLANKRAVDFQEAQSYADDNSLLFMETSAKTSMNVNEIFMAIAKKLPKNEPQNPGANSARGRGVDLTEPTQPTRNQC
modifications: AlexaFluor 488 C5 maleimide label (43% labelling efficiency)
notes: human RAB5A residues 1-212, Q79L C19S C63S; The methods say that RAB5A was loaded with GTP or GDP; also called RAB5A-AF488; RAB5-AF488
Regarding B2, the Kd in experiment [3] came out at 27 µM; in [4], 7.4 µM; in [6] it was 6 µM; in experiment [7], 2.6 µM. In addition, in experiment [5], the “fold tighter binding than the WT complex” value was roughly 3 fold.

B3: HsRAB5A Q79L C19S,C63S, 1-212, AF488-labelled (natural protein, human, UniProt P20339 1-212, looked up)
chain: B2 chain
modifications: AlexaFluor 488 C5 maleimide label (43% labelling efficiency)
notes: RAB5A, human, residues 1-212, with Q79L, C19S and C63S; Loaded with GTP or GDP before gel filtration; also called RAB5A-AF488; AF488-RAB5A; source: E. coli OverExpress C41(DE3), purified (HisTrap, ULP1 cleavage, gel filtration)
As to B3, the Kd in experiment [8] is 3.21 µM and 4.24 µM; in [9], 22.1 µM; in experiment [10], 6.04 µM; in experiment [11], 6.27 µM.

B4: human RAB5A-GTP 1-212 (C19S, C63S, Q79L), unlabelled (natural protein, UniProt P20339 1-212, looked up)
chain: B2 chain
In the case of B4, the “GUV-based kinase assay: activation of VPS34-CII by membrane-tethered RAB5A (initial rates, AF647-PX signal)” value was 2 fold in experiment [12] and roughly 2 fold in [13].
